Here are results for 6 molecules from patent publication US20050038228A1.

Test [1] concerns the target rheumatoid factor in serum of rheumatism patients (human). The test can be described thus: batch adsorption with γ-sterilized adsorbent: 100 µL adsorbent with 600 µL rheumatism patient serum, 37° C., 2 h; rheumatoid factor depletion from the supernatant.
Test [2] deals with IgG in healthy human serum (human). The test can be described thus: batch adsorption as in Example 7 with γ-sterilized adsorbent and healthy human serum; IgG depletion from the supernatant.
In test [3] the target is anti-β1 adrenoceptor antibody in serum of patients with dilated cardiomyopathy (human). Briefly: batch adsorption with γ-sterilized adsorbent and dilated cardiomyopathy patient serum; antibody left in the supernatant measured by ELISA on the β1-adrenoceptor second loop peptide. For orientation: In an ELISA, binding on a coated surface is turned into a signal by an enzyme label.

For test [4], the target named is immune complex prepared by heating a human IgG solution (10 mg/mL) at 63° C. for 15 minutes (human). The test can be described thus: batch adsorption after γ-ray sterilization (25 kGy) from healthy human serum spiked with immune complex (20 µg/mL); supernatant measured with a C1q-CIC kit.
Test [5] has the same target. The test can be described thus: batch adsorption from healthy human serum spiked with immune complex (20 µg/mL); supernatant measured with a C1q-CIC kit.
Test [6] addresses IgG in healthy human serum (human). Briefly: batch adsorption after γ-ray sterilization (25 kGy): 100 µL adsorbent with 300 µL healthy human serum, 37° C., 2 h; IgG depletion from the supernatant.
For test [7] the target is unchanged. Briefly: batch adsorption: 100 µL adsorbent with 300 µL healthy human serum, 37° C., 2 h; IgG depletion from the supernatant against a saline control.

Numbering of substitutions follows the chain as printed.

B1: MG56 peptide (peptide)
peptide: MTTYKLVINGKTLKGETTTKAVDAETAEKAFKQYANDNGVDGVWTYDDATKTFTVTE
For B1, the Adsorption ratio of rheumatoid factor (%) in test [1] was 34.4%.

B2: C36 peptide (peptide)
peptide: MTTYKLVINGKTLKGETTTKAVDAETAERAFRQYATDNGVEGMWTYDPATKTFTVTEC
Take B2: the Adsorption ratio of IgG (%) in test [2] worked out at 59.7%. Moreover, the Adsorption ratio of rheumatoid factor (%) in test [1] turned out to be 56.3%. Further, the Adsorption ratio of β1 adrenoceptor (%) in test [3] was 77.8%.

B3: C24 peptide (peptide)
peptide: B2 peptide with Q33K, T36N, E41D
With B3, the Adsorption ratio of an immune complex after sterilization (%) in test [4] was determined as 80.5%. Besides, in test [5], the Adsorption ratio of an immune complex before sterilization (%) was determined as 81.5%.

B4: CO4 peptide (peptide)
peptide: B2 peptide with Q33K, T36N, M43I
With B4, the Adsorption ratio of IgG after sterilization (%) in test [6] turned out to be 90.2%. Moreover, in test [7], the Adsorption ratio of IgG before sterilization (%) amounted to 97.1%.

B5: C15 peptide (peptide)
peptide: B2 peptide with T36N, M43L
In the case of B5, the Adsorption ratio of an immune complex after sterilization (%) in test [4] worked out at 84.1%. For the same molecule, the Adsorption ratio of an immune complex before sterilization (%) in test [5] is 85.2%.

B6: B04 peptide (peptide)
peptide: B2 peptide with Q33K, E41D
With B6, the Adsorption ratio of an immune complex after sterilization (%) in test [4] was 91.6%. Also, the Adsorption ratio of an immune complex before sterilization (%) in test [5] was found to be 92.4%.
